Measured values from patent publication US20090324601A1 (published 2009).
Numbering of substitutions follows the chain as printed. One block for each binder: values may come before it.

How the values were obtained:
[1] = target: PDGFR-alpha on MG-63 cells (human, UniProt P16234 24-1089); assay: cell-based or functional assay
CSF-1R = CSF-1R (UniProt P07333 20-512, limits assumed); assay: method not described
FLT3 = FLT3 (UniProt P36888 27-541, limits assumed); assay: method not described
c-kit = c-kit (UniProt P10721 26-520, limits assumed); assay: method not described
c-kit, sequence (P10721 26-520 limits assumed): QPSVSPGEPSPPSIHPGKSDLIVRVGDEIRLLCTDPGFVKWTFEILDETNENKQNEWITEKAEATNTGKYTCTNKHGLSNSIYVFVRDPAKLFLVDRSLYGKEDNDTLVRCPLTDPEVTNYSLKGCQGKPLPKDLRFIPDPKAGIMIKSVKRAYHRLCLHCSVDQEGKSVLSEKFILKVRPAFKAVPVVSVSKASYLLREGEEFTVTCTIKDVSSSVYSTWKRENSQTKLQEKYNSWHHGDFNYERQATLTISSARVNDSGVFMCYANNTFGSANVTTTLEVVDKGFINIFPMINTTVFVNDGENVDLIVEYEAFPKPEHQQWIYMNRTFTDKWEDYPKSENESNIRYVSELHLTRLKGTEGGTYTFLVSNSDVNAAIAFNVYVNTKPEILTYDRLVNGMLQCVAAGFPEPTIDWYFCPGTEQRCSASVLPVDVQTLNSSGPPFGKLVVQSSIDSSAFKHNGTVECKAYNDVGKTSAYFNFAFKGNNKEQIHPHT

PDGFR-beta = PDGFR-beta (UniProt P09619 33-530, limits assumed); assay: method not described
PDGFR-beta, sequence (P09619 33-530 limits assumed): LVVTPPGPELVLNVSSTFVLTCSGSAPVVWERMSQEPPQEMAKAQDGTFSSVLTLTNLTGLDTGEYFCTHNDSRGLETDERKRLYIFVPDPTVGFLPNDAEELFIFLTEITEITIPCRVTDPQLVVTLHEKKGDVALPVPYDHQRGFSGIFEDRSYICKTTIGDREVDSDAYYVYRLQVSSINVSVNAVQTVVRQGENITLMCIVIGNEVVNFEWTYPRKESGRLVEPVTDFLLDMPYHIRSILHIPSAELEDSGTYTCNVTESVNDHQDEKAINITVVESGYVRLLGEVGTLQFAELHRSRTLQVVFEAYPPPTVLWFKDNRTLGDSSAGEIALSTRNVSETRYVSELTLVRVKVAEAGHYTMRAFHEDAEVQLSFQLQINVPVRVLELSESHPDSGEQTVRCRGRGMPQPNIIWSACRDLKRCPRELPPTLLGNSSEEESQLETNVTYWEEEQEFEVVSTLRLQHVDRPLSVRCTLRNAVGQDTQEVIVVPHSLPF

CSF-1R, sequence (P07333 20-512 limits assumed): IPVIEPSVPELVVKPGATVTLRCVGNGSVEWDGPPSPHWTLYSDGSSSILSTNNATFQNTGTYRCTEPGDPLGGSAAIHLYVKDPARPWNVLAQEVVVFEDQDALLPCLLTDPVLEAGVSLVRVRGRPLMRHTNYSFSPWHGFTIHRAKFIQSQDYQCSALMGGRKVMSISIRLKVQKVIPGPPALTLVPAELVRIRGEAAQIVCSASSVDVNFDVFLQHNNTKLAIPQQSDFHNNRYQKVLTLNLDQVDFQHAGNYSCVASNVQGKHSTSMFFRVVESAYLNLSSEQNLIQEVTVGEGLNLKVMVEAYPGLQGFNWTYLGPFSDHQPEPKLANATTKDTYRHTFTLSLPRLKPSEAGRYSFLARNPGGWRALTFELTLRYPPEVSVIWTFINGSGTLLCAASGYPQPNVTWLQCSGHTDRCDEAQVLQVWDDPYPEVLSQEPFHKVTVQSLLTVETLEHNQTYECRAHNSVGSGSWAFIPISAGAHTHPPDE
PDGFR-alpha on MG-63 cells, sequence (P16234 24-1089): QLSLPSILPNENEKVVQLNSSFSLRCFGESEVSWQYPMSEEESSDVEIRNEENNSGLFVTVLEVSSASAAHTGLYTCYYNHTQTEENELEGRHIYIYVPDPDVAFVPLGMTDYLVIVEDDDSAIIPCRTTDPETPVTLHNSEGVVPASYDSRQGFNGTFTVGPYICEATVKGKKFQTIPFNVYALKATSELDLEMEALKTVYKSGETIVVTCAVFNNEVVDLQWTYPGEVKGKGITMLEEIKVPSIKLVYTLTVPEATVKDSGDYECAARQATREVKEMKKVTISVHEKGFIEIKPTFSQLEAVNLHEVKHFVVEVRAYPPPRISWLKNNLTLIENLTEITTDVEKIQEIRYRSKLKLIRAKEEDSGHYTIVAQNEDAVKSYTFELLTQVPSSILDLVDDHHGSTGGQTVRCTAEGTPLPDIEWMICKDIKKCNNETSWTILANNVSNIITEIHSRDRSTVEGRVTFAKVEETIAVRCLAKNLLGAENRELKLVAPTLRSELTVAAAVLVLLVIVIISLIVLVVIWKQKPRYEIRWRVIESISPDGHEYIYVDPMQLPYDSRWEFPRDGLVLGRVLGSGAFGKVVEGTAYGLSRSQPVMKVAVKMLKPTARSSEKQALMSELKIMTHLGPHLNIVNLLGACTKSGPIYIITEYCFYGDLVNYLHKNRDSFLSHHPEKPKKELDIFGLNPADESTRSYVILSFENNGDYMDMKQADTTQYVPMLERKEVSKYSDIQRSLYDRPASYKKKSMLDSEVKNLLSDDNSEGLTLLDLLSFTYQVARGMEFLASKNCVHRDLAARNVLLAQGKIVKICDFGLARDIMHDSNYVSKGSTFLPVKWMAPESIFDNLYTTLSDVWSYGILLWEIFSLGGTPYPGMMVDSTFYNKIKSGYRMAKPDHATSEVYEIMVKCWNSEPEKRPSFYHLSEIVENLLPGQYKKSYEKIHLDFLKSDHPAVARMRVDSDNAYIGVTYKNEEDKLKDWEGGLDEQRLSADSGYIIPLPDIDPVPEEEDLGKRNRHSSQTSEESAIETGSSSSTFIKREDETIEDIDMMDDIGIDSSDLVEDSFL

B1: 5.16.1 (antibody, V domains shown)
VH: QVQLVQSGAEVKKPGASVKVSCKASGYTFTSYYMYWVRQAPGQGLEWMGIINPSGGSTSYAQKFQGRVTMTRDTSTSTVYMELSSLRSEDTAVYYCARGSSPFFDYWGQGTLVTVSS
VL: DIQMTQSPSSLSASVGDRVTITCRASQIISHFLNWYQQKPGKAPKLLVYVASSLQSGVPSRFSGSGSGTDFTLTISSLQPEDFATYYCQQSFSIPLTFGGGTKVEIK
- PROLIFERATION ASSAY: MG-63 CELLS, IC50 [1]: 2.8 nM

B3: 3.341.1 (antibody, V domains shown)
VH: EVQLVESGGGLVQPGGSLRLSCAASGFTFSSYSMNWVRQAPGKGLEWVSFISGSSSTMYYADSVKGRFTISRDNAKNSLYLQMNSLRDEDTAVYYCARLRYFDWSYAFDIWGQGTMVTVSS
VL: DIQMTQSPSSVSTSVGDRVTITCRASQGIRSWLAWYQQRPGKAPKLLIYAASSLQNGVPSRFSGSGSGTDFTLTISSLQPEDFATYFCQQATSFPFTFGPGTKVDIN
notes: Variable regions only; the assays name clone 3.341.2; also called 3.341.2
- binding result (CSF-1R): no binding
- binding result (FLT3): no binding
- binding result (c-kit): no binding
- binding result (PDGFR-beta): no binding

B4: 3.818.4 (antibody, V domains shown)
VH: B3 VH with F50Y, S56T, Y101H
VL: B3 VL with R30S, N56S, D105G, N107K
notes: Variable regions only
- binding result (CSF-1R): no binding
- binding result (FLT3): no binding
- binding result (c-kit): no binding
- binding result (PDGFR-beta): no binding

B5: 2.2002.3 (antibody, V domains shown)
VH: QVQLVESGGGVVQPGRSLRVSCAASGFMFRSYGMHWVRQAPGKGLEWVAVIWHDGSNKNHGDSVKGRFTISRDNSKNTLYLQMNSLRAEDTAVYYCARGRLAGGGPYYYYYYGMDVWGQGTTVTVSS
VL: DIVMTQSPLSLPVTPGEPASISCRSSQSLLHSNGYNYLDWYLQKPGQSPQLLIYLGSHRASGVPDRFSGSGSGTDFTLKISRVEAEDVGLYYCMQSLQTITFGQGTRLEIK
notes: Variable regions only
- binding result (CSF-1R): no binding
- binding result (FLT3): no binding
- binding result (c-kit): no binding
- binding result (PDGFR-beta): no binding

B6: 2.542.2 (antibody, V domains shown)
VH: QLQLQESGPGLVKPSETLSLTCTVSGGSISSSTYYWGWIRQPPGKGLEWIGTIYYSGSTYYNPSLKSRVTISVDTSKNQFSLKLNSVTAADTAVYYCARHHWVFDYWGQGTLVTVSS
VL: EIVLTQSPDFLSVTPKEKVTITCRASQIIGSSLHWYQQKPDQSPNLLIKYASQSVSGVPSRFSGSGSGTDFTLTLNSLEAEDAATYYCHQSTILPWTFGQGTKVEIK
notes: Variable regions only
- binding result (CSF-1R): no binding
- binding result (FLT3): no binding
- binding result (c-kit): no binding
- binding result (PDGFR-beta): no binding

More lines, now with the values ahead:

- binding result (CSF-1R): no binding
- binding result (FLT3): no binding
- binding result (c-kit): no binding
- binding result (PDGFR-beta): no binding
B2: 2.1954.2 (antibody, V domains shown)
VH: QVQLVESGGGVVQPGRSLRLSCAASGFSFSIYGMHWVRQAPGKGLEWVAVIWFDGSNKYYADSVKGRFTISRDNSKNTLYLQMNSLRAEDTALYYCARDKASYYGSGMDYWGQGTLVTVSS
VL: EIVLTQSPGTLSLSPGERATLSCRASQSVSSTYLAWYQHRPGQAPRLLISGASRRATGIPDRFSGSGSGTDFTLTISRLEPEDFAVYYCQHYGSSFTWTFGQGTKVEIK
notes: Variable regions only

- binding result (CSF-1R): no binding
- binding result (FLT3): no binding
- binding result (c-kit): no binding
- binding result (PDGFR-beta): no binding
B7: 2.998.2 (antibody, V domains shown)
VH: B6 VH with G27D, S32F, T33I, N85R, L112Q
VL: B6 VL with E1D, S7F, L11Q, I28V, N45K, V55F, L75I, A80V, I106V
notes: Variable regions only

- binding result (CSF-1R): no binding
- binding result (FLT3): no binding
- binding result (c-kit): no binding
- binding result (PDGFR-beta): no binding
B8: 2.84.3 (antibody, V domains shown)
VH: B6 VH with S28F, T33S, S58T, P63S, K77Q, N85S
VL: EVVLTQSPDFQSVTPKEKITITCRASQIIGTSLHWYQKKPDQSPKLLIKYASQSFSGVPSRFSGSGSGTEFTLTINSLEAEDTATYYCHQSTNLPWTFGQGTKVEIK
notes: Variable regions only; also called 2.84.1; 2.84.2
